Kd data for one molecule are collected here from paper PMC6745058 (Molecular cell, 2019).

In the assay the target is T1, Rtt107NTD (BRCT1-4 domains of Rtt107, residues 2-513) (S. cerevisiae, UniProt P38850 2-513).
T1 sequence (looked up): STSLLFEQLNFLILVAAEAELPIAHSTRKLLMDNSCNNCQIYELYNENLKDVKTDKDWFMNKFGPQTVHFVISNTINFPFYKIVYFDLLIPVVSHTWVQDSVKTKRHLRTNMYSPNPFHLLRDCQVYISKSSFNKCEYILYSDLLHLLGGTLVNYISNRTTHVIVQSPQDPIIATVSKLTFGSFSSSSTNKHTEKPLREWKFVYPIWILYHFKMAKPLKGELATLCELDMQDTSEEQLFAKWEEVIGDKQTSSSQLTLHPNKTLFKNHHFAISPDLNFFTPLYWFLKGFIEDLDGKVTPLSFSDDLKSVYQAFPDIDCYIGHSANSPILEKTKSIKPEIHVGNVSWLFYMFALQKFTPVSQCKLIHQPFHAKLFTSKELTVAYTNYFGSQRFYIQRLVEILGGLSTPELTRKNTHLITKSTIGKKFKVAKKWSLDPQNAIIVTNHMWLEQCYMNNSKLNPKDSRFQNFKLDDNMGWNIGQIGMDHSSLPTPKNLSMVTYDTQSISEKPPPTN
Kind of assay: ITC. (In general: In ITC the heat of successive injections is recorded.)

Molecule DVDEPNPIVISDSEATDEEISIIYEPEFNENYLWAEE (peptide, UniProt Q06164 2-38, looked up) [Mms22RIM peptide (Mms22 residues 2-38)] gave a Kd of 15 nM.

By Kd is commonly meant the concentration at which binding is half-saturated. A high value points to a looser complex.
